The results in this text go back to patent US20100111851A1 (UNIVERSITY OF TOKYO, published 2010).

Changes are numbered by the printed parent chain.

Assay [1] has as its target T1, whole human PRG-3 with a C-terminal V5 tag, inducibly expressed on PRG-3/293T-Rex cells (human, UniProt Q8TBJ4 1-325).
T1 construct: Membrane protein with 6 transmembrane regions; also called PRG-3/293 cells; PRG3+/293 cells; not shown: V5 tag inserted at the C-terminus
T1 sequence: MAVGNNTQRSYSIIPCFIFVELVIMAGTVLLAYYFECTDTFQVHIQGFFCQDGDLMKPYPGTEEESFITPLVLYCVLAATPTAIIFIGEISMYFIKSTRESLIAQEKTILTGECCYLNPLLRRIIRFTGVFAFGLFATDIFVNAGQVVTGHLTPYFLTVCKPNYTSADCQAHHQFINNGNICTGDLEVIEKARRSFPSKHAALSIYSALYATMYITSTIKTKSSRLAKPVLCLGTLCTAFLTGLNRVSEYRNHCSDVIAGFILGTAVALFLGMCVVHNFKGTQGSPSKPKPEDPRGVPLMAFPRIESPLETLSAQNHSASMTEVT
As to the kind of experiment: flow cytometry, hybridoma supernatant on PRG-3-induced against non-induced 293 cells. On the procedure:
The cell line expressing human PRG-3 suspended in FACS buffer (2% FBS/PBS) was diluted to 1×10⁶ cells/mL using FACS buffer, and aliquoted at 50 μL/well into a Falcon 353910 round-bottom 96-well plate. Hybridoma culture supernatant diluted to a suitable concentration was added to the wells containing the cells and reacted for 60 min on ice. Next, the cells were rinsed once with FACS buffer. Goat F(ab′)₂ fragment anti-mouse IgG (H+L)-FITC (Beckman Coulter) was added to the wells containing the cells as a secondary antibody, and reacted for 30 min on ice. The supernatant was removed by centrifugation after the reaction, and the cells suspended in 100 μL of FACS buffer were subjected to flow cytometry. A FACS Calibur (Becton Dickinson) was used for the flow cytometry. A gate for the viable cell population was established with a forward scatter-side scatter dot blot, an FL1 histogram was made of the cells contained in the population, and binding activity thereof was evaluated.

Assay [2] concerns the target T2, human PRG-3 (without tag) on cells (human, UniProt Q8TBJ4 1-325).
T2 construct: also called PRG-3 protein; PRG-3/BaF3
T2 sequence: T1 sequence
As to the kind of experiment: flow cytometry, mixture of the two antibodies on Ba/F3 cells transfected with pMCN-PRG-3. Here is the method: A Ba/F3 cell transformant line was established by gene transfer of the pMCN-PRG-3 expression vector constructed in example 2 into Ba/F3 cells, which is a murine pro B cell line, by electroporation under conditions of 0.33 kV and 950 μF. The Ba/F3 cells are IL-3 dependent cells, and they were cultured in RPMI-1640/10% FBS/penicillin-streptomycin containing 1 ng/mL IL-3. The cells that underwent gene transfer were selected by RPMI-1640/10% FBS/penicillin-streptomycin containing IL-3 and 500 μg/mL Geneticin® (Invitrogen). Cells expressing PRG-3 from the Geneticin®-resistant lines were selected by flow cytometry. […] Lines O-A5, O-D3, and O-F5 were established as Ba/F3 cell lines expressing PRG-3 (FIG. 6). Additionally, line O-F5 was cloned by the limiting dilution method and the OF5-G8 line with a high level of expression was also obtained.
(In flow cytometry, cells or beads pass a laser one at a time.)

B1: anti-PRG-3 monoclonal antibody 4F1 (antibody, mouse IgG2b, kappa, V domains shown)
VH: QVQLQQPGAELVKPGASVKLSCKASGYTFTSYWMNWVKQRPGRGLEWIGKIHPSDSETHYNQKFKSKATLTVDKSSSTAYIQLNSLTSEDSAVYYCTRGYNNYLDYWGQGTTLTVSS
VL: DIVLTQSPASLAVSLGQSVTISCRASESVEYYGTSLMQWYQQKPGQPPKLLIYGASNVESGVPARFSGSGSWTDFSLNIHPVEEDDIAIYFCQQSRKVPSTFGGGTKLEIKR
notes: also called MR4F1
In the case of B1, the binding result in assay [1] and in assay [2] was “binds” in each case.

B2: anti-PRG-3 monoclonal antibody 4F12 (antibody, mouse IgG2a, kappa, V domains shown)
VH: B1 VH with N84S, T97A, N101S
VL: B1 VL with S18R, W72G, I89M
notes: Tested as hybridoma culture supernatant and as protein G purified antibody; also called MR4F12
Regarding B2, the binding result in assay [1] and in assay [2] was “binds” each time.
